Data as given in US20220332804A1 (CSL INNOVATION, published 2022).
Where a chain is given by its changes, count along the chain named.

Legend:
Assay in all cases: SPR, antibody captured, C2 as analyte;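 note: biacore SPR at 37 °C, anti-C2 mAbs captured via goat anti-human IgG on CM5 chips, double-referenced sensorgrams fit to a 1:1 kinetic or steady-state model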
[1] = molecular target: T1, human C2 I272A (human, UniProt P06681 21-752)
T1 sequence: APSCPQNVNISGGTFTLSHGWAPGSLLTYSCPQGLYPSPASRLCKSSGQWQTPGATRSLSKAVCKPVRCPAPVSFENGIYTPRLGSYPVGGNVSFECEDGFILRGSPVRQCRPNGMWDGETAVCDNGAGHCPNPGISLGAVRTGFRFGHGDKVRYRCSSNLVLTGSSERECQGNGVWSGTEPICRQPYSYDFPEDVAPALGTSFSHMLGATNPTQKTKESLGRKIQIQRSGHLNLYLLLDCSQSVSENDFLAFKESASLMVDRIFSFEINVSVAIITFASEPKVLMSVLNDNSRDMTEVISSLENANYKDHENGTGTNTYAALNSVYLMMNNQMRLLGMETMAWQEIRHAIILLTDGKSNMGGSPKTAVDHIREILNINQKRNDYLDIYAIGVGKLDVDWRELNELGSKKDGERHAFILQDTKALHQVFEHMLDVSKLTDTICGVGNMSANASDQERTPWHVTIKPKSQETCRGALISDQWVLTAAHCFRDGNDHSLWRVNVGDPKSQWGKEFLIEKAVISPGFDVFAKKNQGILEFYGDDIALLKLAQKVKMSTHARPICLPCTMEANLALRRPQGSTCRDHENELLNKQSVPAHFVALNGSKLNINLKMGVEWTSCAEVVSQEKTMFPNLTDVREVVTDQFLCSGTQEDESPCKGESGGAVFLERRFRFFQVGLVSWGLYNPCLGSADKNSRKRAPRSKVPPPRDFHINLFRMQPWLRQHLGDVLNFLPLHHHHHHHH
Method: (§1) Surface plasmon resonance (SPR, Biacore) was used for all binding affinity analyses. In brief, goat anti-human IgG was directly immobilised onto the carboxymethyl dextran surface of CM5 sensorchips to approximately 12,000 RU using standard NHS/EDC chemistry at pH 5. The immobilised antibody surface was pre-conditioned with ten injections of polyclonal human IgG (Privigen 60 s) prepared at 1 μg/mL. Ligands (anti-C2 mAbs) were captured at the beginning of each cycle as described below. An adjacent spot or flow cell in which only Polyclonal IgG was capture was used as a reference surface. The goat anti-human IgG Fc antibody surface was regenerate in 100 mM H3PO4, injected for 45 seconds at the end of each cycle. Experiments were performed at 37° C. and the flow rate of each experiment was kept constant at 30 μL/min.
(§2) Sensogram data was double-referenced against a reference anti-IgG surface (i.e. minus anti-C2 mAb) and blank buffer injections obtained within each experiment. The binding data was fit to 1:1 (kinetic or steady-state) model using local Rmax and null refraction index (RI=0) when appropriate. Buffers and solutions were filtered (0.22 μm) prior to use.

[2] = molecular target: T2, human C2 T317A (human, UniProt P06681 21-752)
T2 sequence: T1 sequence with A252I, T297A
Method: as §1, §2

[3] = molecular target: T3, human C2 E450A (human, UniProt P06681 21-752)
T3 sequence: T1 sequence with A252I, E430A
Method: as §1, §2

[4] = molecular target: T4, human C2 S469A (human, UniProt P06681 21-752)
T4 sequence: T1 sequence with A252I, S449A
Method: as §1, §2

B1: RF16-226 (antibody, human IgG4 S228P, lambda)
heavy: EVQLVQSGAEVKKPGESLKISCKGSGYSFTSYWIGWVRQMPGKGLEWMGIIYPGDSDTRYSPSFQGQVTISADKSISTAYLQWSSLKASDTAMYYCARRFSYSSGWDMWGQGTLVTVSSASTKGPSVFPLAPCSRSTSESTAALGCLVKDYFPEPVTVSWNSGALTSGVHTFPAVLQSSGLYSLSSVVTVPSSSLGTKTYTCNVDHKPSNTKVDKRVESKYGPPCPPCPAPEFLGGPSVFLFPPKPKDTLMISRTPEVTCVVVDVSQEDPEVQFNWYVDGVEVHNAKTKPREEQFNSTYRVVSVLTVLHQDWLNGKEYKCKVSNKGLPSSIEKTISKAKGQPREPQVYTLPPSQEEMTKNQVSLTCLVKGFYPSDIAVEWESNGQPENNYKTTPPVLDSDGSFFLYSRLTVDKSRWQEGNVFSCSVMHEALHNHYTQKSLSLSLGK
light: SYELTQPPSVSVSPGQTARITCSGDALTSKYVAWYQQKSGLAPLLVIYEDTRRPSGIPAKFSGSSSGSVATLTISGAHGDDEADYYCYSTDASGHQRVFGGGTKLTVLSQPKAAPSVTLFPPSSEELQANKATLVCLISDFYPGAVTVAWKADGSPVKAGVETTKPSKQSNNKYAASSYLSLTPEQWKSHRSYSCQVTHEGSTVEKTVAPTECS
notes: pH-dependent anti-C2 antibody from a phage display library; also called WT
[1]
  Kd: 10.4 nM
[2]
  Kd: 9 nM
[3]
  Kd: 4.2 nM
[4]
  Kd: 28.2 nM
